In IntAct's records for PubMed 32296183:

B1: Dolichol kinase (Homo sapiens), Q9UPQ8 (parent)
chain: MTRECPSPAPGPGAPLSGSVLAEAAVVFAVVLSIHATVWDRYSWCAVALAVQAFYVQYKWDRLLQQGSAVFQFRMSANSGLLPASMVMPLLGLVMKERCQTAGNPFFERFGIVVAATGMAVALFSSVLALGITRPVPTNTCVILGLAGGVIIYIMKHSLSVGEVIEVLEVLLIFVYLNMILLYLLPRCFTPGEALLVLGGISFVLNQLIKRSLTLVESQGDPVDFFLLVVVVGMVLMGIFFSTLFVFMDSGTWASSIFFHLMTCVLSLGVVLPWLHRLIRRNPLLWLLQFLFQTDTRIYLLAYWSLLATLACLVVLYQNAKRSSSESKKHQAPTIARKYFHLIVVATYIPGIIFDRPLLYVAATVCLAVFIFLEYVRYFRIKPLGHTLRSFLSLFLDERDSGPLILTHIYLLLGMSLPIWLIPRPCTQKGSLGGARALVPYAGVLAVGVGDTVASIFGSTMGEIRWPGTKKTFEGTMTSIFAQIISVALILIFDSGVDLNYSYAWILGSISTVSLLEAYTTQIDNLLLPLYLLILLMA

Variants of: B1
Conditions: with kca10_human KCNA10, Q16322
Sequence of kca10_human KCNA10, Q16322 (Q16322 whole entry): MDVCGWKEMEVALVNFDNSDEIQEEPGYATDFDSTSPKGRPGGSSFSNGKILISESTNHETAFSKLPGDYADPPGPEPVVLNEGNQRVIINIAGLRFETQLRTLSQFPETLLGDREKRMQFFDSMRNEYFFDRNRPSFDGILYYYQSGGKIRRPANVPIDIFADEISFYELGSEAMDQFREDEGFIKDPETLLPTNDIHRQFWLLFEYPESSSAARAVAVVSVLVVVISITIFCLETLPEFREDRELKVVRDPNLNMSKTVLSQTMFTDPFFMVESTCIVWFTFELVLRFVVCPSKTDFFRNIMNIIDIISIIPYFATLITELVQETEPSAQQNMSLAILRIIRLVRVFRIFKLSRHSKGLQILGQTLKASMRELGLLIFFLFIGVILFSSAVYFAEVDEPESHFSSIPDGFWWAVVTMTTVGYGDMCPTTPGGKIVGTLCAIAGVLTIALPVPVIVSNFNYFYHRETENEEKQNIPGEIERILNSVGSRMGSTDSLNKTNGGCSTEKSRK

effect of a mutation on the interaction	Variant
disrupting interaction strength	MTRECPSPAPGPGAPLSGSVLAEAAVVFAVVLSIHATVWDRYSWCAVALAVQAFYVQYKWDRLLQQGSAVFQFRMSANSGLLPASMVMPLLGLVMKERCQTAGNPFFERFGIVVAATGMAVALFSSVLALGITRPVPTNTCVILGLAGGVIIYIMKHSLSVGEVIEVLEVLLIFVYLNMILLYLLPRCFTPGEALLVLGGISFVLNQLIKRSLTLVESQGDPVDFFLLVVVVGMVLMGIFFSTLFVFMDSGTWASSIFFHLMTCVLSLGVVLPWLHRLIRRNPLLWLLQFLFQTDTRIYLLAYWSLLATLACLVVLYQNAKRSSSESKKHQAPTIARKYFHLIVVATYIPGIIFDRPLLYVAATVCLAVFIFLEYVRYFRIKPLGHTLRSFLSLFLDERDSGPLILTHIYLLLGMSLPIWLIPRPCTQKGSLGGARALVPSAGVLAVGVGDTVASIFGSTMGEIRWPGTKKTFEGTMTSIFAQIISVALILIFDSGVDLNYSYAWILGSISTVSLLEAYTTQIDNLLLPLYLLILLMA [Y441S]

Variants of: B1
Conditions: with kcna6_human KCNA6, P17658
Sequence of kcna6_human KCNA6, P17658 (P17658 whole entry): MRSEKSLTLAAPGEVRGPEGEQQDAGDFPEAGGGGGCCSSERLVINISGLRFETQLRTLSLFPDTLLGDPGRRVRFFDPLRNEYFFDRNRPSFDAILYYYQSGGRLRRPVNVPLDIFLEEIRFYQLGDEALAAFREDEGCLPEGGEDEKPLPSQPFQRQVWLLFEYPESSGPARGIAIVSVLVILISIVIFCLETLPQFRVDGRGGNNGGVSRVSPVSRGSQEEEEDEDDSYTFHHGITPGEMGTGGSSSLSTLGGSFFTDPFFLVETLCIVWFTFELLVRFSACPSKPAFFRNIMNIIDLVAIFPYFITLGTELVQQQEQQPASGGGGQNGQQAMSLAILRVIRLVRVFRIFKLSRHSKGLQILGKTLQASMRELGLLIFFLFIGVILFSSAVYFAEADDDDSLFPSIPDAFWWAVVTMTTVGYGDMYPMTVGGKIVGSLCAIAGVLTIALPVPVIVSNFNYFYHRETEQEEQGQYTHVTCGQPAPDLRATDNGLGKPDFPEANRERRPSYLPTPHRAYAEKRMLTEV

effect of a mutation on the interaction	Variant
disrupting interaction strength	MTRECPSPAPGPGAPLSGSVLAEAAVVFAVVLSIHATVWDRYSWCAVALAVQAFYVQYKWDRLLQQGSAVFQFRMSANSGLLPASMVMPLLGLVMKERCQTAGNPFFERFGIVVAATGMAVALFSSVLALGITRPVPTNTCVILGLAGGVIIYIMKHSLSVGEVIEVLEVLLIFVYLNMILLYLLPRCFTPGEALLVLGGISFVLNQLIKRSLTLVESQGDPVDFFLLVVVVGMVLMGIFFSTLFVFMDSGTWASSIFFHLMTCVLSLGVVLPWLHRLIRRNPLLWLLQFLFQTDTRIYLLAYWSLLATLACLVVLYQNAKRSSSESKKHQAPTIARKYFHLIVVATYIPGIIFDRPLLYVAATVCLAVFIFLEYVRYFRIKPLGHTLRSFLSLFLDERDSGPLILTHIYLLLGMSLPIWLIPRPCTQKGSLGGARALVPSAGVLAVGVGDTVASIFGSTMGEIRWPGTKKTFEGTMTSIFAQIISVALILIFDSGVDLNYSYAWILGSISTVSLLEAYTTQIDNLLLPLYLLILLMA [Y441S]

Variants of: B1
Conditions: with eda_human EDA

effect of a mutation on the interaction	Variant
disrupting interaction strength	MTRECPSPAPGPGAPLSGSVLAEAAVVFAVVLSIHATVWDRYSWCAVALAVQAFYVQYKWDRLLQQGSAVFQFRMSANSGLLPASMVMPLLGLVMKERCQTAGNPFFERFGIVVAATGMAVALFSSVLALGITRPVPTNTCVILGLAGGVIIYIMKHSLSVGEVIEVLEVLLIFVYLNMILLYLLPRCFTPGEALLVLGGISFVLNQLIKRSLTLVESQGDPVDFFLLVVVVGMVLMGIFFSTLFVFMDSGTWASSIFFHLMTCVLSLGVVLPWLHRLIRRNPLLWLLQFLFQTDTRIYLLAYWSLLATLACLVVLYQNAKRSSSESKKHQAPTIARKYFHLIVVATYIPGIIFDRPLLYVAATVCLAVFIFLEYVRYFRIKPLGHTLRSFLSLFLDERDSGPLILTHIYLLLGMSLPIWLIPRPCTQKGSLGGARALVPSAGVLAVGVGDTVASIFGSTMGEIRWPGTKKTFEGTMTSIFAQIISVALILIFDSGVDLNYSYAWILGSISTVSLLEAYTTQIDNLLLPLYLLILLMA [Y441S]

Variants of: B1
Conditions: with apbp2_human APPBP2, Q92624
Sequence of apbp2_human APPBP2, Q92624 (Q92624 whole entry): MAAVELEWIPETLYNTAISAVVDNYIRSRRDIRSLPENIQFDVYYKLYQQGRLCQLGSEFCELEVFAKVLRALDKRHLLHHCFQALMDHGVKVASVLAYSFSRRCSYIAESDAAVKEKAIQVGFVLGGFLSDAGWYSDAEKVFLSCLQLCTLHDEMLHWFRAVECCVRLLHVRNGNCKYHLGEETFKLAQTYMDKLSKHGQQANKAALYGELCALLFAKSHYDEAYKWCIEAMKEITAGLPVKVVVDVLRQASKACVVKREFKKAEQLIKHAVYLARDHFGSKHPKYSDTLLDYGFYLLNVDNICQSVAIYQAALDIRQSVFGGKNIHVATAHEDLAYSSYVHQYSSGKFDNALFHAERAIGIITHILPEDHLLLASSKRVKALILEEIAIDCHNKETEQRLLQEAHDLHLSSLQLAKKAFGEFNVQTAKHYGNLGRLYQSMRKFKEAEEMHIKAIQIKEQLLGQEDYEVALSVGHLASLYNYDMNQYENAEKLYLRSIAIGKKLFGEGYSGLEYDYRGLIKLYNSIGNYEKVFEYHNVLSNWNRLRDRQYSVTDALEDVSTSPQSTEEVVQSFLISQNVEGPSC

effect of a mutation on the interaction	Variant
disrupting interaction strength	MTRECPSPAPGPGAPLSGSVLAEAAVVFAVVLSIHATVWDRYSWCAVALAVQAFYVQYKWDRLLQQGSAVFQFRMSANSGLLPASMVMPLLGLVMKERCQTAGNPFFERFGIVVAATGMAVALFSSVLALGITRPVPTNTCVILGLAGGVIIYIMKHSLSVGEVIEVLEVLLIFVYLNMILLYLLPRCFTPGEALLVLGGISFVLNQLIKRSLTLVESQGDPVDFFLLVVVVGMVLMGIFFSTLFVFMDSGTWASSIFFHLMTCVLSLGVVLPWLHRLIRRNPLLWLLQFLFQTDTRIYLLAYWSLLATLACLVVLYQNAKRSSSESKKHQAPTIARKYFHLIVVATYIPGIIFDRPLLYVAATVCLAVFIFLEYVRYFRIKPLGHTLRSFLSLFLDERDSGPLILTHIYLLLGMSLPIWLIPRPCTQKGSLGGARALVPSAGVLAVGVGDTVASIFGSTMGEIRWPGTKKTFEGTMTSIFAQIISVALILIFDSGVDLNYSYAWILGSISTVSLLEAYTTQIDNLLLPLYLLILLMA [Y441S]

Variants of: B1
Conditions: with kcna1_human KCNA1, Q09470
Sequence of kcna1_human KCNA1, Q09470 (Q09470 whole entry): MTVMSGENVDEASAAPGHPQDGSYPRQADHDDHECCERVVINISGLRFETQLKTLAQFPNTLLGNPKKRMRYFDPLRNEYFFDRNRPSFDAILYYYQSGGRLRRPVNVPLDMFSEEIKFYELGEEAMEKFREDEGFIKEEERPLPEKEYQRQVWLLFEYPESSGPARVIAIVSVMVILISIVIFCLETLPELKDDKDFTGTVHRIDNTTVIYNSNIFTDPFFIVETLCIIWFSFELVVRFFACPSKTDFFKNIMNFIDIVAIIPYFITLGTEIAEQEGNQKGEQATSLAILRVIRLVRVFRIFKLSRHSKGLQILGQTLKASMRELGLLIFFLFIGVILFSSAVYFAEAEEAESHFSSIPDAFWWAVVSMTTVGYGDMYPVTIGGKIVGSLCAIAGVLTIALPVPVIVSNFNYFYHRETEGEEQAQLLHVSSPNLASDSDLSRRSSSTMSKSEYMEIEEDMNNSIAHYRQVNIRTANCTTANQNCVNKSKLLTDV

effect of a mutation on the interaction	Variant
disrupting interaction strength	MTRECPSPAPGPGAPLSGSVLAEAAVVFAVVLSIHATVWDRYSWCAVALAVQAFYVQYKWDRLLQQGSAVFQFRMSANSGLLPASMVMPLLGLVMKERCQTAGNPFFERFGIVVAATGMAVALFSSVLALGITRPVPTNTCVILGLAGGVIIYIMKHSLSVGEVIEVLEVLLIFVYLNMILLYLLPRCFTPGEALLVLGGISFVLNQLIKRSLTLVESQGDPVDFFLLVVVVGMVLMGIFFSTLFVFMDSGTWASSIFFHLMTCVLSLGVVLPWLHRLIRRNPLLWLLQFLFQTDTRIYLLAYWSLLATLACLVVLYQNAKRSSSESKKHQAPTIARKYFHLIVVATYIPGIIFDRPLLYVAATVCLAVFIFLEYVRYFRIKPLGHTLRSFLSLFLDERDSGPLILTHIYLLLGMSLPIWLIPRPCTQKGSLGGARALVPSAGVLAVGVGDTVASIFGSTMGEIRWPGTKKTFEGTMTSIFAQIISVALILIFDSGVDLNYSYAWILGSISTVSLLEAYTTQIDNLLLPLYLLILLMA [Y441S]

Variants of: B1
Conditions: with ylat2_human SLC7A6, Q92536
Sequence of ylat2_human SLC7A6, Q92536 (Q92536 whole entry): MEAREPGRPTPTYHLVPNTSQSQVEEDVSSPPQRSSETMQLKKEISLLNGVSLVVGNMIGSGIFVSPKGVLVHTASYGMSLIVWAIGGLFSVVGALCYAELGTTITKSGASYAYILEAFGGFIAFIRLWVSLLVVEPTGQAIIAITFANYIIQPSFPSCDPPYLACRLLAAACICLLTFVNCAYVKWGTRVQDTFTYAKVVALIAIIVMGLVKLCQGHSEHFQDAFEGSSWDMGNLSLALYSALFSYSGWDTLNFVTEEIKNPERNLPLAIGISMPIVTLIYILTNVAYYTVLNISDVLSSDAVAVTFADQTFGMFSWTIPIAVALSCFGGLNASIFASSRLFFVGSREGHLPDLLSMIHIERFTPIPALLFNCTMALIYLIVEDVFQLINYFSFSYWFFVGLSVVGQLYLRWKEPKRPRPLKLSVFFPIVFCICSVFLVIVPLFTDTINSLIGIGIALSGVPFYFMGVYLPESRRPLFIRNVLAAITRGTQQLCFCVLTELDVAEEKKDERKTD

effect of a mutation on the interaction	Variant
with no effect	MTRECPSPAPGPGAPLSGSVLAEAAVVFAVVLSIHATVWDRYSWCAVALAVQAFYVQYKWDRLLQQGSAVFQFRMSANSGLLPASMVMPLLGLVMKERCQTAGNPFFERFGIVVAATGMAVALFSSVLALGITRPVPTNTCVILGLAGGVIIYIMKHSLSVGEVIEVLEVLLIFVYLNMILLYLLPRCFTPGEALLVLGGISFVLNQLIKRSLTLVESQGDPVDFFLLVVVVGMVLMGIFFSTLFVFMDSGTWASSIFFHLMTCVLSLGVVLPWLHRLIRRNPLLWLLQFLFQTDTRIYLLAYWSLLATLACLVVLYQNAKRSSSESKKHQAPTIARKYFHLIVVATYIPGIIFDRPLLYVAATVCLAVFIFLEYVRYFRIKPLGHTLRSFLSLFLDERDSGPLILTHIYLLLGMSLPIWLIPRPCTQKGSLGGARALVPSAGVLAVGVGDTVASIFGSTMGEIRWPGTKKTFEGTMTSIFAQIISVALILIFDSGVDLNYSYAWILGSISTVSLLEAYTTQIDNLLLPLYLLILLMA [Y441S]
